The series concerns the target HER2 on immobilised SKBR3 EVs (UniProt P04626 23-1255). In words: fluorescence polarisation; SKBR3 EVs captured by anti-CD9/CD81; delta FP below LOD; FITC aptamer 5 nM, 1 h, room temperature, in antibody-captured EV wells; aptamers folded in PBS + 1.0 mM MgCl2 (CD63-BP, control) or PBS + 5.0 mM MgCl2 (HER2-HApt); pH not stated. The conditions noted are these: protein: native; tags: none; label: 5'-FITC; folded single strand.

B1: FITC-negative control aptamer (structured_DNA)
DNA: GCGCGAATGGGCGCGC
modifications: 3' inverted dT
In the case of B1, the binding result is listed as “no binding”.

Source of the values: publication PMC11367152, “An aptamer‐guided fluorescence polarisation platform for extracellular vesicle liquid biopsy”.
